Assays:
[1] = substrate: O=C(O)C(=O)[C@@H](O)[C@H](O)C(=O)CO; assay: 2,5-DKG reductase kinetic / substrate specificity assay with purified enzyme; format: biochemical, Corynebacterium sp. ATCC 31090; details: other: substrate 2,5-DKG, 150 mM sodium phosphate buffer, pH 6.4, 25° C.
Description: (§1) The following assay conditions were used to determine kinetic parameters: […]

[2] = substrate: NC(=O)C1=CN([C@@H]2O[C@H](COP(=O)(O)OP(=O)(O)OC[C@H]3O[C@@H](n4cnc5c(N)ncnc54)[C@H](OP(=O)(O)O)[C@@H]3O)[C@@H](O)[C@H]2O)C=CC1; assay: as above; format: biochemical, Corynebacterium sp. ATCC 31090; details: other: cofactor NADPH, 150 mM sodium phosphate buffer, pH 6.4, 25° C.
Description: as §1

B1: 2,5-DKG reductase (Corynebacterium sp. ATCC 31090) (protein)
chain: MTVPSIVLNDGNSIPQLGYGVFKVPPADTQRAVEEALEVGYRHIDTAAIYGNEEGVGAAIAASGIARDDLFITTKLWNDRHDGDEPAAAIAESLAKLALDQVDLYLVHWPTPAADNYVHAWEKMIELRAAGLTRSIGVSNHLVPHLERIVAATGVVPAVNQIELHPAYQQREITDWAAAHDVKIESWGPLGQGKYDLFGAEPVTAAAAAHGKTPAQAVLRWHLQKGFVVFPKSVRRERLEENLDVFDFDLTDTEIAAIDAMDPGDGSGRVSAHPDEVD
notes: made in house; host or cells: Corynebacterium sp; ATCC 31090 (natural producer, native enzyme purified from cell paste, not recombinant)
B1 showed a Km [1] of 15.5 mM and a Km [2] of 0.0337 mM.

Source: patent publication US4757012A, “Ascorbic acid intermediates and process enzymes” (Genentech, Inc., priority 1984, dated 1988)
